Patent US20230192860A1 (Bristol-Myers Squibb, published 2023)

Legend:
[1] = target: T1, monovalent hVISTA-ECD (amino acids 32-193 of SEQ ID NO: 1 with a 7xHis tail) (human, UniProt Q9H7M9 33-193); test: SPR 37C, pH 6.0 over pH 6.0
T1 construct: analyte of the SPR assays; also called huVISTA-His; human VISTA-ECD

[2] = target: T1, monovalent hVISTA-ECD (amino acids …); test: SPR 37C, pH 6.9 over pH 6.0
Procedure: (§1) Human VISTA binding kinetics of P1-061029 (“ ‘029”), P1-068761 (“ ‘761”) and P1-068767 (“ ‘767”) (as IgG1.3 antibodies) were measured at pH values between pH 7.4 and pH 6.0, i.e., at pH 6.9 and pH 6.45 using a Biacore® T100 instrument (GE Healthcare). […] Antibodies were diluted to 25 nM in PBST pH 7.4, and were captured across active biosensor flow cells at 5 ul/min for 45 seconds. A concentration series of 100 - 0.78 nM monovalent hVISTA-ECD (SEQ ID NO: 325) was prepared pH 7.4, 6.9, 6.45 and 6.0 running buffers, and was injected over the captured antibodies at 40 ul/min to measure association and dissociation. Two 15 second injections of 10 mM glycine pH 1.5 were used to regenerate the Protein A capture surface between assay cycles. Rate constants ka (kₒₙ) and kd (koff) were derived from reference flow cell and 0 nM blank-subtracted sensorgrams, and were fit to a 1:1 binding model in Biacore® T200 Evaluation Software v.2.0. The affinity constant, KD was calculated as the ratio of rate constants koff/kₒₙ for each VISTA antibody. Ratios of koff and KD at each pH relative to pH 6.0 were calculated to evaluate how the VISTA koff and KD change as the buffer pH shifts to physiological, and are shown in Table 7. […] As the buffer pH shifts from acidic to physiological, VISTA koff and KD both weaken for ‘761 and ‘767. Physiological pH data for ‘761 and ‘767 for comparison is referenced from Table 7 and noted with an asterisk (*).

[3] = target: T1, monovalent hVISTA-ECD (amino acids …); test: SPR 37C, pH 6.45 over pH 6.0
Procedure: as §1

[4] = target: T2, avidin (ThermoFisher Scientific catalog #21128) (UniProt P02701 25-152); test: SPR 25C, Ab on Protein A, pH 6 and pH 7.4
T2 construct: pI control protein

[5] = target: T3, BSA (Calbiochem catalog #126593) (UniProt P02769 25-607); test: SPR 25C, Ab on Protein A, pH 6 and pH 7.4
T3 construct: pI control protein

[6] = target: T1, monovalent hVISTA-ECD (amino acids …); test: SPR 37C, Ab on Protein A, hVISTA-ECD 100-0.78 nM, pH 6.0
Procedure: as §1

[7] = target: T1, monovalent hVISTA-ECD (amino acids …); test: SPR 37C, Ab on Protein A, hVISTA-ECD 100-0.78 nM, pH 6.9
Procedure: as §1

[8] = target: T1, monovalent hVISTA-ECD (amino acids …); test: SPR 37C, Ab on Protein A, hVISTA-ECD 100-0.78 nM, pH 6.45
Procedure: as §1

[9] = target: T1, monovalent hVISTA-ECD (amino acids …); test: SPR 37C, Ab on Protein A, hVISTA-ECD 50-5 nM, pH 6.0, average
How it was run: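 Biacore T100 at 37C: antibodies (IgG1.3 format, 25 nM in PBST pH 7.4) captured on Protein A, then 50 - 5 nM monovalent hVISTA-ECD injected in pH 7.4 or 6.0 running buffer. Reference- and blank-subtracted sensorgrams fit to 1:1 model; KD = koff/kon.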

T1 sequence (Q9H7M9 other isoform, or with tags, fused parts or gaps limits assumed): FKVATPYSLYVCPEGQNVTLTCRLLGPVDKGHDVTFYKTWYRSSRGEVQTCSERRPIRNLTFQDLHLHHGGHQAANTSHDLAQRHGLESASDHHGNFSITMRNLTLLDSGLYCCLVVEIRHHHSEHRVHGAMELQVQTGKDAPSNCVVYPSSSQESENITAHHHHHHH
T2 sequence (P02701 25-152 limits assumed): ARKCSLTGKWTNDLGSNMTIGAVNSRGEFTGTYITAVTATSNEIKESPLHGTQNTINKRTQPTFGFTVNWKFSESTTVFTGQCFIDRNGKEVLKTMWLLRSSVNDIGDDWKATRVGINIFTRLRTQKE
T3 sequence (P02769 25-607 limits assumed): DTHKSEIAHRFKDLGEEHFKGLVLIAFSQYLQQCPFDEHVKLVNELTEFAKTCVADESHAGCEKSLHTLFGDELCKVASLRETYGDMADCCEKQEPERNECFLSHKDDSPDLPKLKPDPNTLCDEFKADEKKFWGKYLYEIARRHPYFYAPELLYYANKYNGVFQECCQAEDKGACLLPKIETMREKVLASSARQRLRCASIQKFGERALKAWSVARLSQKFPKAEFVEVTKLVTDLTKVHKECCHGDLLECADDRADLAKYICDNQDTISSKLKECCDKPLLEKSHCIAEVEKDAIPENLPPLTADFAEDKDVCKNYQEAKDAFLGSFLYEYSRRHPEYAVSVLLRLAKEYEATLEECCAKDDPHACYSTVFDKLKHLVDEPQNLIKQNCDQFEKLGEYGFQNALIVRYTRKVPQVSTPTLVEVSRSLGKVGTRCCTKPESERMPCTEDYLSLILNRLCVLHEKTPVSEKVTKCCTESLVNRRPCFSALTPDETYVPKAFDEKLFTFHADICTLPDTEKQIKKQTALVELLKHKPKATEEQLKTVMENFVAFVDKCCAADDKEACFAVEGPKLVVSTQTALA

| KD ratio to pH 6.0 [1] | koff ratio to pH 6.0 [1] | KD ratio to pH 6.0 [2] | koff ratio to pH 6.0 [2] | KD ratio to pH 6.0 [3] | koff ratio to pH 6.0 [3] | Kd [6] [nM] | koff [6] [s⁻¹] | kon [6] [M⁻¹ s⁻¹] | Kd [7] [nM] | koff [7] [s⁻¹] | kon [7] [M⁻¹ s⁻¹] | Kd [8] [nM] | koff [8] [s⁻¹] | kon [8] [M⁻¹ s⁻¹] | Kd [9] [nM] | koff [9] [s⁻¹] | kon [9] [M⁻¹ s⁻¹] | Binder | binding result [4] | binding result [5] |
| --- | --- | --- | --- | --- | --- | --- | --- | --- | --- | --- | --- | --- | --- | --- | --- | --- | --- | --- | --- | --- |
| 1 | 1 | 7.1 | 1 | 2.7 | 0.7 | 2 | 0.0057 | 2.9e+06 | 14 | 0.0057 | 410000 | 5.3 | 0.004 | 740000 | 3.6 | 0.0058 | 1.6e+06 | P1-061029.IgG1.3 (antibody, IgG1.3; also called P1-061029 (parent); P1-061029-18) heavy: EVQLVESGGGLVQPGKSLRLSCAASGFTLDDYAMHWVRQAPGKGLEWVSGINWNSANIGYADSVKGRFTISRDNAKNSLYLQMNSLRTEDTALYYCAKVPGYSGGWIDAFDVWGQGTMVTVSSASTKGPSVFPLAPSSKSTSGGTAALGCLVKDYFPEPVTVSWNSGALTSGVHTFPAVLQSSGLYSLSSVVTVPSSSLGTQTYICNVNHKPSNTKVDKRVEPKSCDKTHTCPPCPAPEAEGAPSVFLFPPKPKDTLMISRTPEVTCVVVDVSHEDPEVKFNWYVDGVEVHNAKTKPREEQYNSTYRVVSVLTVLHQDWLNGKEYKCKVSNKALPAPIEKTISKAKGQPREPQVYTLPPSREEMTKNQVSLTCLVKGFYPSDIAVEWESNGQPENNYKTTPPVLDSDGSFFLYSKLTVDKSRWQQGNVFSCSVMHEALHNHYTQKSLSLSPG light: not shown | no binding (tested: 10 RU; analyte 100-10 nM) | no binding (tested: 10 RU; analyte 100-10 nM) |
| 1 | 1 | 170 | 13.4 | 18.4 | 3.2 | 1.1 | 0.00066 | 600000 | 190 | 0.0089 | 48000 | 20 | 0.0021 | 110000 | 3.8 | 0.0014 | 380000 | P1-068761.IgG1.3 (antibody, IgG1.3; also called P1-068761-20; P1-068761 hIgG1.3f) heavy: EVQLVESGGGLVQPGKSLRLSCAASGFTLEDEAMHWVRQAPGKGLEWVSGINWNSEEIGYADSVKGRFTISRDNAKNSLYLQMNSLRTEDTALYYCAKVPGYSHGWIDAEDVWGQGTMVTVSSASTKGPSVFPLAPSSKSTSGGTAALGCLVKDYFPEPVTVSWNSGALTSGVHTFPAVLQSSGLYSLSSVVTVPSSSLGTQTYICNVNHKPSNTKVDKRVEPKSCDKTHTCPPCPAPEAEGAPSVFLFPPKPKDTLMISRTPEVTCVVVDVSHEDPEVKFNWYVDGVEVHNAKTKPREEQYNSTYRVVSVLTVLHQDWLNGKEYKCKVSNKALPAPIEKTISKAKGQPREPQVYTLPPSREEMTKNQVSLTCLVKGFYPSDIAVEWESNGQPENNYKTTPPVLDSDGSFFLYSKLTVDKSRWQQGNVFSCSVMHEALHNHYTQKSLSLSPG light: not shown | no binding (tested: 10 RU; analyte 100-10 nM) | no binding (tested: 10 RU; analyte 100-10 nM) |
